Assay results: PMC10433458 (Proceedings of the National Academy of Sciences of the …, 2023)
Where two headings read alike, the source gives them in different places.

How the values were obtained:
[1] = biological target: the molecule itself; experiment: SEC
[2] = biological target: the molecule itself; experiment: SEC; remark: listed apart in the source

B1: phosphoribulokinase of A. thaliana (enzyme, A. thaliana (endogenous in leaves), UniProt P25697 47-395, looked up)
chain: AQETIVIGLAADSGCGKSTFMRRLTSVFGGAAKPPKGGNPDSNTLISDTTTVICLDDYHSLDRYGRKEQKVTALDPRANDFDLMYEQVKALKNGIAVEKPIYNHVTGLLDPPELIQPPKILVIEGLHPMFDERVRDLLDFSIYLDISNEVKFAWKIQRDMAERGHSLESIKASIEARKPDFDAFIDPQKQYADAVIEVLPTTLIPDDNEGKVLRVRLIMKEGVKYFSPVYLFDEGSTISWIPCGRKLTCSYPGIKFNYEPDSYFDHEVSVLEMDGQFDRLDELIYVESHLSNLSTKFYGEVTQQMLKHADFPGSNNGTGLFQTIVGLKIRDLYEQLIANKATARAEAKA
[1]
  stoichiometry N: 2

B2: phosphoribulokinase of C. reinhardtii (enzyme, UniProt P19824 32-375, looked up)
chain: DKDKTVVIGLAADSGCGKSTFMRRMTSIFGGVPKPPAGGNPDSNTLISDMTTVICLDDYHCLDRNGRKVKGVTALAPEAQNFDLMYNQVKALKEGKSVDKPIYNHVSGLIDAPEKIESPPILVIEGLHPFYDKRVAELLDFKIYLDISDDIKFAWKIQRDMAERGHSLESIKSSIAARKPDFDAYIDPQKKDADMIIQVLPTQLVPDDKGQYLRVRLIMKEGSKMFDPVYLFDEGSTISWIPCGRKLTCSFPGIKMFYGPDTWYGQEVSVLEMDGQFDKLEELIYVESHLSNTSAKFYGEITQQMLKNSGFPGSNNGTGLFQTIVGLKVREVYERIVKKDVVPV
[2]
  stoichiometry N: 2
